Source: US20170088605A1 (Novartis, published 2017)
Numbering of substitutions follows the chain as printed. Read-outs that look alike come from different tables or passages of the source.

Legend:
[1] = target: T1, JCV infectious virus, isolates Mad-1 and Mad-4 (VP1) (JC virus); experiment: cell-based or functional assay
JCV VLP (consensus) [2] = target: T2, JCV VLP (consensus) (JC virus, UniProt P03089 1-354); experiment: ELISA on plates coated with JCV VLPs, OD 450 nm
T2 construct: also called JCV VLPs; JC virus VLPs

JCV VLP (consensus) [3] = target: T2, JCV VLP (consensus); experiment: ELISA on coated JCV VLPs
[4] = target: T3, BKV serotype II chimeric infectious virus (VP1 of isolate SB) (BK virus serotype II); experiment: cell-based or functional assay
[5] = target: BKV serotype III chimeric infectious virus (VP1 of isolate AS) (BK virus serotype III); experiment: cell-based or functional assay
[6] = target: BKV serotype IV chimeric infectious virus (VP1 of strain ITA-4) (BK virus serotype IV); experiment: cell-based or functional assay
[7] = target: T4, BKV serotype I infectious virus (VP1) (BK virus serotype I, UniProt P03088 1-362); experiment: cell-based or functional assay
T4 sequence (looked up): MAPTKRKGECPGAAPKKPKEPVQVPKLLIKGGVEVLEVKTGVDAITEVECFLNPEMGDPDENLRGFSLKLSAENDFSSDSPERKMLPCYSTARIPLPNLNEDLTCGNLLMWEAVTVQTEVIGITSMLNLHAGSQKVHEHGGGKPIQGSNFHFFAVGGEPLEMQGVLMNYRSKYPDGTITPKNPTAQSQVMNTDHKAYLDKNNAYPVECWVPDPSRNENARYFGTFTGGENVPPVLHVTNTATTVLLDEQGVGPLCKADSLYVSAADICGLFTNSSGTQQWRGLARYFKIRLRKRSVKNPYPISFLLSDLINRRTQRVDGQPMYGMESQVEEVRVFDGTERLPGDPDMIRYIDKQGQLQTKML

[8] = target: T3, BKV serotype II chimeric infectious …; experiment: cell-based or functional assay; remark: listed apart in the source
[9] = target: pooled RAV virus (BKV serotype I, 20 amino acid changes throughout VP1) (BK virus serotype I); experiment: cell-based or functional assay
[10] = target: T1, JCV infectious virus, isolates Mad-1 …; experiment: cell-based or functional assay; remark: listed apart in the source
[11] = target: T5, BKV serotype IV VP1 pentamer (BK virus serotype IV, UniProt P14996 30-297); experiment: SET (solution equilibrium titration) on VP1 pentamers
T5 construct: also called serotype IV pentamers

[12] = target: T6, BKV serotype III VP1 pentamer (BK virus serotype III, UniProt P14996 30-297); experiment: as above
T6 construct: also called serotype III pentamers

[13] = target: T7, BKV serotype I VP1 pentamer (BK virus serotype I, UniProt P03088 30-297); experiment: as above
T7 construct: also called serotype I pentamers; BKV-VP1 serotype I pentameric protein

[14] = target: T8, BKV serotype II VP1 pentamer (BK virus serotype II, UniProt P14996 30-297); experiment: as above
T8 construct: also called serotype II pentamers

B1: 2077-4-1 (antibody, V domains shown)
VH: EVQLQQSGPELVKPGASMKISCKASGYSFTGYTMNWVKQSHGENLEWIGLFNPYNGGTRYNQKFKGKATLTVDKSSSTAYMELLSLTSEDSAVYYCARLRNYGIGDDFFDYWGQGTTLTVSS
VL: DIVMTQSHKFMSTSVGDRVSITCKASQDVGTAVAWYQQKPGQSPKLLIYWASTRHTGVPDRFTGSGSGTDFTLTISNVQSEDLTDYFCQQYSNYPYTFGGGTKLEIK
neutralization EC50 [1]: 0.138 µg/mL | neutralization EC90 [1]: 3.06 µg/mL | EC50 (read off the curve) (JCV VLP (consensus) [2]): ~30 pM | IC50 (JCV VLP (consensus) [3]): 34 pM

B2: 2077-28-2 (antibody, V domains shown)
VH: B1 VH with E43K, T58A, R59T, K63R, E82D, A97T, N101K
VL: B1 VL with T84A, N93T, P95T
neutralization EC50 [1]: 0.347 µg/mL | neutralization EC90 [1]: 6.82 µg/mL | EC50 (read off the curve) (JCV VLP (consensus) [2]): ~90 pM | IC50 (JCV VLP (consensus) [3]): 88 pM

B3: 2077-26-1 (antibody, V domains shown)
VH: B1 VH with E10D, I20L, E43K, T58P, R59S, S88P, N101Y
VL: B1 VL with Q38E, T84A, D85Y
neutralization EC50 [1]: 0.702 µg/mL | neutralization EC90 [1]: 3.2 µg/mL | EC50 (read off the curve) (JCV VLP (consensus) [2]): ~60 pM | IC50 (JCV VLP (consensus) [3]): 67 pM

B4: 2077-7-5 (antibody, V domains shown)
VH: B1 VH with E43K, T58I, R59N, N101Y, T117S
VL: B1 VL with Q27R, T84A, I106M
neutralization EC50 [1]: 0.097 µg/mL | neutralization EC90 [1]: 1.1 µg/mL | EC50 (read off the curve) (JCV VLP (consensus) [2]): ~600 pM | IC50 (JCV VLP (consensus) [3]): 651 pM

B5: 2077-10-1 (antibody, V domains shown)
VH: B1 VH with V37M, S40G, E43K, T58P, R59N, N101Y
VL: B1 VL with S76T, N93S
neutralization EC50 [1]: 1.49 µg/mL | neutralization EC90 [1]: > 10 µg/mL | EC50 (read off the curve) (JCV VLP (consensus) [2]): ~90 pM | IC50 (JCV VLP (consensus) [3]): 100 pM

B6: NEG447A (antibody, human IgG1, lambda, V domains shown)
VH: QVQLQESGPGLVKPSETLSLTCTVSGGSISRDYWSWVRQPPGAGLEWIGNIYYSGSTNYNPSLKSRVTISVATNKKQFSLKLTSVTAADTAVYYCARVPGCSSTSCIDGWFDPWGQGILVTVSS
VL: QSVLTQPPSVSAAPGQKVTISCSGSSSNIGNTYVSWYQQLPGTAPKLLIYDNNKRPSGIPDRFSGSKSGTSATLGITGLQTGDEADYYCGTWDSSLSAWVFGGGTRLTVLG
activity (EC90), fold more potent than NEG447 [4]: ~8 fold | neutralization EC50 [5]: > 100 µg/mL | neutralization EC90 [5]: > 100 µg/mL | neutralization EC50 [6]: 0.011 µg/mL | neutralization EC90 [6]: 0.26 µg/mL | neutralization EC50 [7]: 0.0001 µg/mL | neutralization EC90 [7]: 0.094 µg/mL | neutralization EC50 [8]: 0.11 µg/mL | neutralization EC90 [8]: 0.84 µg/mL

B7: P8D11 (antibody, human IgG1, lambda)
heavy: not shown
light: QSVLTQPPSVSVAPGKTARITCGGDNIGSRPVHWYQQKPGQAPILVVYDDSNRPSGIPERFSGSNSGNTATLTISRVEAGDEADYYCQVWSSSTDHPFGGGTKVTVLGQPKAAPSVTLFPPSSEELQANKATLVCLISDFYPGAVTVAWKADSSPVKAGVETTTPSKQSNNKYAASSYLSLTPEQWKSHRSYSCQVTHEGSTVEKTVAPTECS
EC50 of neutralization, fold change against wild-type virus [9]: 3.9 fold | neutralization EC50 [5]: 0.092 µg/mL | neutralization EC90 [5]: 0.53 µg/mL | neutralization EC50 [6]: 0.023 µg/mL | neutralization EC90 [6]: 0.39 µg/mL | neutralization EC50 [10]: 0.09 µg/mL | neutralization EC90 [10]: 2.76 µg/mL | neutralization EC50 [7]: 0.015 µg/mL | neutralization EC90 [7]: 0.24 µg/mL | neutralization EC50 [8]: 0.089 µg/mL | neutralization EC90 [8]: 6.34 µg/mL

B8: P8D11A (antibody, V domains shown)
VH: QVQLVESGGTLVQPGGSLRLSCAASGFTFSNYWMTWVRQAPGKGLEWVANIKKDGSEKYYVDSVRGRFTISRDNAKNSLFLQMNSLRPEDTAVYFCATVRSGRYFALDDWGQGTLVTVSS
VL: QSVLTQPPSVSVAPGKTARITCGGDNIGSRPVHWYQQKPGQAPILVVYDDSNRPSGIPERFSGSNSGNTATLTISRVEAGDEADYYCQVWSSSTDHPFGGGTKVTVLG
neutralization EC50 [5]: 0.01 µg/mL | neutralization EC90 [5]: 0.59 µg/mL | neutralization EC50 [6]: 0.015 µg/mL | neutralization EC90 [6]: 0.064 µg/mL | neutralization EC50 [7]: 0.005 µg/mL | neutralization EC90 [7]: 0.19 µg/mL | neutralization EC50 [8]: 0.029 µg/mL | neutralization EC90 [8]: 8.68 µg/mL | Kd [11]: 2.9 pM | Kd [12]: 3.7 pM | Kd [13]: 4.4 pM | Kd [14]: 2.5 pM

B9: P8D11C (antibody, V domains shown)
VH: B8 VH with S30Q
VL: B8 VL
neutralization EC50 [5]: 0.049 µg/mL | neutralization EC90 [5]: 0.51 µg/mL | neutralization EC50 [6]: 0.005 µg/mL | neutralization EC90 [6]: 0.54 µg/mL | neutralization EC50 [7]: 0.0003 µg/mL | neutralization EC90 [7]: 0.34 µg/mL | neutralization EC50 [8]: 0.18 µg/mL | neutralization EC90 [8]: 0.5 µg/mL | Kd [11]: 2.7 pM | Kd [12]: 4.8 pM | Kd [13]: 4.5 pM | Kd [14]: 2.7 pM

B10: P8D11D (antibody)
heavy: not shown
light: B7 light
neutralization EC50 [5]: 0.185 µg/mL | neutralization EC90 [5]: 0.87 µg/mL | neutralization EC50 [6]: 0.003 µg/mL | neutralization EC90 [6]: 0.063 µg/mL | neutralization EC50 [7]: 0.034 µg/mL | neutralization EC90 [7]: 0.15 µg/mL | neutralization EC50 [8]: 0.161 µg/mL | neutralization EC90 [8]: 1.64 µg/mL | Kd [11]: 3.2 pM | Kd [12]: 5 pM | Kd [13]: 5 pM | Kd [14]: 2 pM

B11: P8D11E (antibody)
heavy: not shown
light: B7 light
neutralization EC50 [5]: 0.236 µg/mL | neutralization EC90 [5]: 0.9 µg/mL | neutralization EC50 [6]: 0.002 µg/mL | neutralization EC90 [6]: 0.087 µg/mL | neutralization EC50 [7]: 0.032 µg/mL | neutralization EC90 [7]: 0.11 µg/mL | neutralization EC50 [8]: 0.144 µg/mL | neutralization EC90 [8]: 2.52 µg/mL | Kd [11]: 2.7 pM | Kd [12]: 6 pM | Kd [13]: 4.3 pM | Kd [14]: 1.7 pM

B12: P8D11B (antibody, V domains shown)
VH: B8 VH with S30K
VL: B8 VL
neutralization EC50 [5]: 0.014 µg/mL | neutralization EC90 [5]: 0.5 µg/mL | neutralization EC50 [6]: 0.005 µg/mL | neutralization EC90 [6]: 0.54 µg/mL | neutralization EC50 [7]: 0.003 µg/mL | neutralization EC90 [7]: 0.3 µg/mL | neutralization EC50 [8]: 0.088 µg/mL | neutralization EC90 [8]: 1.93 µg/mL | Kd [11]: 2.9 pM | Kd [12]: 2.5 pM | Kd [13]: 3.8 pM | Kd [14]: 1.8 pM
